“Also recorded” adds a separate entry of the source.
How the values were obtained:
control GEF (GEF720) = biological target: T1, control GEF (GEF720) (Homo sapiens, UniProt O94827); test: Yeast Exchange Assay (YEA), RhoA activation; type: cell-based; details: yeast strain TAT7, reporter gene
T1 construct: expressed in transfected cells; host or cells: yeast strain TAT7
T1 sequence (O94827 1-1006): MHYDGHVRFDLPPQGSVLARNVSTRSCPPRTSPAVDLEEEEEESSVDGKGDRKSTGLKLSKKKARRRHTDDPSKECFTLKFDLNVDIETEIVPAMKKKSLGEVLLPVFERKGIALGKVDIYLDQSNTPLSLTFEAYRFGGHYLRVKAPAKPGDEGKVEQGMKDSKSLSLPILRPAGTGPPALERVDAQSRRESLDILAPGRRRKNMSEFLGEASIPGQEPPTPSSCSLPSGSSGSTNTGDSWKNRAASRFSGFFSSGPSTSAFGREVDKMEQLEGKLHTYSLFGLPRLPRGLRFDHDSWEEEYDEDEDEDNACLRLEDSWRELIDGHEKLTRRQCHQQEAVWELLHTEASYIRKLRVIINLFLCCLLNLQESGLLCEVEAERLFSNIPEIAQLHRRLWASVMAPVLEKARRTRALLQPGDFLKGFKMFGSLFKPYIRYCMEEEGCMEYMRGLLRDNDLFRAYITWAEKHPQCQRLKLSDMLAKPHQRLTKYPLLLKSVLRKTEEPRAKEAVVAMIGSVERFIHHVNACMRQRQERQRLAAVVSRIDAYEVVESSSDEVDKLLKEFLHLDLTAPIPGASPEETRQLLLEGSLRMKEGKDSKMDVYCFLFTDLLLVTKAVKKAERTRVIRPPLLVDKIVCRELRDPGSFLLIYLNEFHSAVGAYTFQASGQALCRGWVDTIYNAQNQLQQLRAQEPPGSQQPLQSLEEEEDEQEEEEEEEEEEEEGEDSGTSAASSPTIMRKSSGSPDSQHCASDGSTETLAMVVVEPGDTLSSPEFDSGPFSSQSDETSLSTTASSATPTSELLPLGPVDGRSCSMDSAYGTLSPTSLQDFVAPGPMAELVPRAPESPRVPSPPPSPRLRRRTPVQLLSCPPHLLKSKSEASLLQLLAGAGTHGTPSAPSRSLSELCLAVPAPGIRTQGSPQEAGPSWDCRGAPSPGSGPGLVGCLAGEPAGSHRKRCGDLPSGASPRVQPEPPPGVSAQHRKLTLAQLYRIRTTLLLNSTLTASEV
Description: The wild type GTPase is fused to the LexA DNA binding domain (Matchmaker GAL4 two-hybrid, Clontech Laboratories, Inc., USA) and the effector to the […] (Matchmaker GAL4 two-hybrid, Clontech, Inc., USA). Under these conditions, no binding occurs in the TAT7 strain (De Toledo et al., 2000). Upon addition of a third plasmid expressing the GEF, the GTPase gets activated and binds to its effector, thus leading to the transactivation of the reporter gene LacZ.
TrioGEFD2, a control GEF (GEF720) or an empty vector (−GEF: corresponds to a vector without GEF) were introduced into the YEA system and analysed for their ability to transactivate the reporter gene in absence (left panel) or in the presence (right panel) of TRIPα.
In order to better characterise the effect of TRIAPα on the Trio full length RhoGEF activity, the yeast exchange assay (YEA) was used, which is a quick and quantitative test derived from the classical two-hybrid system allowing to measure Rho-GEF activity and specificity (De Toledo et al., 2000). This functional assay is based on the fact that the GTPase binds to its effector only if it is activated by a RhoGEF. Briefly, yeasts are transformed with the GTPase fused to the LexA binding domain (LexA), and its effector to the GAL-4 Activating Domain (GAD), and with the adequate Rho-GEF partner in the yeast strain TAT7 (FIG. 7). […]

[1] = system: NGF-differentiated PC12 cells; test: Serum-induced neurite retraction; type: cell-based; details: 0 to 15 min after serum addition
Method: FIG. 6A represents histograms quantifying the effects of GFP-TRIPα or GFP on serum induced neurite retraction in NGF-differentiated PC12 cells. The X-axis represents the time after serum addition in minutes and the Y-axis represents the percentage of transfected cells with neurites.
Cells were transfected with GFP-TRIPα (white bars) or GFP (black bars) and differentiated with NGF (50 ng/ml). Serum was added and neurite retraction was followed for 15 minutes. The number of transfected cells with neurites was counted from at least 200 cells in 3 independent experiments.
Since Trio is an activator of RhoA and is expressed in PC12 cells (Estrach et al., 2002), it was analysed whether TRIPα could interfere with serum-induced neurite retraction in NGF-differentiated PC12 cells. […] After NGF treatment, cells were subjected to serum addition (DMEM medium supplemented with 10% HS and 5% fetal calf serum (FCS)) from 0 to 15 min (FIG. 6A). Cells were then fixed and permeabilised (Estrach et al., 2002) and observed as described in FIG. 5. Cells with neurites are defined as cells with neurites of at least twice the length of the cell body.

Effect on control GEF (GEF720) in the YEA system (control GEF (GEF720)): the control GEF is unaffected
Sequence: AREGADGAICGYNLATLVMLGPSERVFCPLCEPCSSDIYELM [TRIPα, 42-amino acid peptide corresponding to the variable region of TRIAPα]
Effect on serum-induced neurite retraction [1]: prevents serum- and LPA-induced neurite retraction; also recorded: significantly inhibited this retraction

Source: patent US8088892B2, “Inhibitors of proteins from the Rho-GEF family” (Centre National de la Recherche Scientifique (C.N.R.S.), priority 2002, dated 2012)
